US6869925 (Amgen, dated 2005)

Key:
[1] = biological target: SLPI binding sites on U937 cells (human monocyte cell line; intact cells, PMA-induced cells or plasma membranes) (human); assay: 125I-SLPI saturation binding, intact U937 cells, *SLPI at 40 pM
[2] = biological target: SLPI binding sites on HuT78 cells (human T cell line) (human); assay: 125I-SLPI saturation binding, intact HuT78 cells, *SLPI at 40 pM
[3] = biological target: SLPI binding sites on U937 cells (human monocyte cell line; intact cells, PMA-induced cells or plasma membranes) (human); assay: competition with 125I-SLPI, intact U937 cells, cold SLPI at 26 nM
[4] = biological target: SLPI binding sites on U937 cells (human monocyte cell line; intact cells, PMA-induced cells or plasma membranes) (human); assay: 125I-SLPI saturation binding, U937 cells minus PMA, *SLPI at 80 pM
[5] = biological target: SLPI binding sites on U937 cells (human monocyte cell line; intact cells, PMA-induced cells or plasma membranes) (human); assay: 125I-SLPI saturation binding, U937 cells plus PMA, *SLPI at 640 pM
[6] = biological target: SLPI binding sites on U937 cells (human monocyte cell line; intact cells, PMA-induced cells or plasma membranes) (human); assay: competition with 125I-SLPI, intact U937 cells, cold SLPI at 2.6 nM
[7] = biological target: SLPI binding sites on U937 cells (human monocyte cell line; intact cells, PMA-induced cells or plasma membranes) (human); assay: competition with 125I-SLPI, intact U937 cells, cold SLPI at 270 nM
[8] = biological target: SLPI binding sites on U937 cells (human monocyte cell line; intact cells, PMA-induced cells or plasma membranes) (human); assay: competition with 125I-SLPI, intact U937 cells, cold SLPI at 8.2 nM
[9] = biological target: SLPI binding sites on U937 cells (human monocyte cell line; intact cells, PMA-induced cells or plasma membranes) (human); assay: competition with 125I-SLPI, intact U937 cells, cold SLPI at 860 nM
[10] = biological target: SLPI binding sites on U937 cells (human monocyte cell line; intact cells, PMA-induced cells or plasma membranes) (human); assay: competition with 125I-SLPI, intact U937 cells, Kd by Cheng-Prusoff
[11] = biological target: SLPI binding sites on U937 cells (human monocyte cell line; intact cells, PMA-induced cells or plasma membranes) (human); assay: competition with 125I-SLPI, intact U937 cells, competitor at 26 nM
[12] = biological target: SLPI binding sites on HuT78 cells (human T cell line) (human); assay: competition with 125I-SLPI, intact HuT78 cells, cold SLPI at 270 nM
[13] = biological target: SLPI binding sites on HuT78 cells (human T cell line) (human); assay: competition with 125I-SLPI, intact HuT78 cells, cold SLPI at 860 nM
[14] = biological target: SLPI binding sites on HuT78 cells (human T cell line) (human); assay: competition with 125I-SLPI, intact HuT78 cells, Kd by Cheng-Prusoff
[15] = biological target: SLPI binding sites on U937 cells (human monocyte cell line; intact cells, PMA-induced cells or plasma membranes) (human); assay: competition with 125I-SLPI, intact U937 cells, competitor at 8.2 nM
[16] = biological target: SLPI binding sites on HuT78 cells (human T cell line) (human); assay: Scatchard plot of 125I-SLPI saturation binding, intact HuT78 cells
[17] = biological target: SLPI binding sites on HuT78 cells (human T cell line) (human); assay: 125I-SLPI saturation binding, intact HuT78 cells, *SLPI at 10,240 pM
[18] = biological target: SLPI binding sites on U937 cells (human monocyte cell line; intact cells, PMA-induced cells or plasma membranes) (human); assay: competition with 125I-SLPI, intact U937 cells, cold SLPI at 0.078 nM
[19] = biological target: SLPI binding sites on U937 cells (human monocyte cell line; intact cells, PMA-induced cells or plasma membranes) (human); assay: competition with 125I-SLPI, intact U937 cells, competitor at 0.25 nM
[20] = biological target: SLPI binding sites on U937 cells (human monocyte cell line; intact cells, PMA-induced cells or plasma membranes) (human); assay: 125I-SLPI saturation binding, U937 cells plus PMA, *SLPI at 10,240 pM
[21] = biological target: SLPI binding sites on HuT78 cells (human T cell line) (human); assay: competition with 125I-SLPI, intact HuT78 cells, competitor at 0.80 nM
[22] = biological target: SLPI binding sites on U937 cells (human monocyte cell line; intact cells, PMA-induced cells or plasma membranes) (human); assay: competition with 125I-SLPI, U937 plasma membranes, competitor at 0 nM
[23] = biological target: SLPI binding sites on U937 cells (human monocyte cell line; intact cells, PMA-induced cells or plasma membranes) (human); assay: 125I-SLPI saturation binding, U937 cells minus PMA, *SLPI at 20,480 pM
[24] = biological target: SLPI binding sites on U937 cells (human monocyte cell line; intact cells, PMA-induced cells or plasma membranes) (human); assay: Scatchard plot of 125I-SLPI saturation binding, non-induced U937 cells
[25] = biological target: SLPI binding sites on U937 cells (human monocyte cell line; intact cells, PMA-induced cells or plasma membranes) (human); assay: competition with 125I-SLPI, U937 plasma membranes, competitor at 2750 nM
[26] = biological target: SLPI binding sites on U937 cells (human monocyte cell line; intact cells, PMA-induced cells or plasma membranes) (human); assay: competition with 125I-SLPI, U937 plasma membranes, competitor at 8.20 nM

Chain of serine leukocyte protease inhibitor (SLPI) (P03973 26-132): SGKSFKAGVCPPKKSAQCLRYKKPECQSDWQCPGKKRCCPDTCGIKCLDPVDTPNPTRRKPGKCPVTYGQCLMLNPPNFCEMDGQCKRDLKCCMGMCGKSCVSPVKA

serine leukocyte protease inhibitor (SLPI) (from UniProt P03973 26-132)
bound *SLPI (pM) [1]: 9.5 pM | bound per free [1]: 0.311 | sites bound per cell (sites per cell) [1]: 572 | specific cpm [1]: 380 cpm | specific cpm [2]: 0 cpm | % *SLPI BOUND [3]: 12% | bound *SLPI (pM) [4]: 37 pM | bound per free [4]: 0.86 | sites bound per cell (sites per cell) [4]: 2230 | specific cpm [4]: 400 cpm | bound pM [5]: 103 pM | bound per free [5]: 0.192 | sites bound per cell (sites per cell) [5]: 6200 | specific cpm [5]: 1100 cpm | % *SLPI BOUND [6]: 55% | % *SLPI BOUND [7]: 0% | % *SLPI BOUND [8]: 24% | % *SLPI BOUND [9]: 0% | Kd [10]: 2 nM | % *SLPI BOUND [11]: 11% | % *SLPI BOUND [12]: 0% | % *SLPI BOUND [13]: 8.7% | Kd [14]: 2 nM | % *SLPI BOUND [15]: 22% | Kd [16]: 2 nM | bound pM [17]: 32.7 pM | bound per free [17]: 0.0032 | sites bound per cell (sites per cell) [17]: 1970 | specific cpm [17]: 1300 cpm | % *SLPI BOUND [18]: 101% | % *SLPI BOUND [19]: 106% | bound pM [20]: 274 pM | bound per free [20]: 0.028 | sites bound per cell (sites per cell) [20]: 16500 | specific cpm [20]: 2930 cpm | % *SLPI BOUND [21]: 79% | CPM *SLPI BOUND [22]: 18700 cpm | bound *SLPI (pM) [23]: 915 pM | bound per free [23]: 0.047 | sites bound per cell (sites per cell) [23]: 55100 | specific cpm [23]: 9780 cpm | Kd [24]: 1.1 nM | CPM *SLPI BOUND [25]: 1680 cpm | CPM *SLPI BOUND [26]: 5710 cpm
